Earlier results as cited in PMC6263114.

Biological target: transferrin receptor (TfR) (Homo sapiens) (UniProt P02786)
Sequence (P02786 89-760): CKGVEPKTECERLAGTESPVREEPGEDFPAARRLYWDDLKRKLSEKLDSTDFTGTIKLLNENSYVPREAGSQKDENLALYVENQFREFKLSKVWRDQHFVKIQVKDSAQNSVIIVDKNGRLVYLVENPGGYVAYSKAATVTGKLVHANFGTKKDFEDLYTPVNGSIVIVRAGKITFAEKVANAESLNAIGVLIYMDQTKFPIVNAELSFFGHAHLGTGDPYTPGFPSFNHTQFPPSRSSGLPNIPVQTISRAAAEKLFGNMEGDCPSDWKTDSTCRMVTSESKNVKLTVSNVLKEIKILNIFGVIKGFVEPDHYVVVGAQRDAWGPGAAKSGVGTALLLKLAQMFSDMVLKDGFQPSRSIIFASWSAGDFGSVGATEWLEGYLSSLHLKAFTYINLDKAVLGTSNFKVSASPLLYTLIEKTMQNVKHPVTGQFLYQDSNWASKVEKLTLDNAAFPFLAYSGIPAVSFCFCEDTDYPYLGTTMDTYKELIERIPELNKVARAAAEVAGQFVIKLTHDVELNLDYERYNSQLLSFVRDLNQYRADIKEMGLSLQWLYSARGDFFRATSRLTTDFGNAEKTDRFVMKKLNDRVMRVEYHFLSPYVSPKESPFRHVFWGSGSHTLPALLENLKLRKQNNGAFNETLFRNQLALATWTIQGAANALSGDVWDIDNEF

Kd: 10 nM
Substance: T7 peptide
